Measurements from publication PMC8920075.

B1: REGN-10987 (Imdevimab) (antibody, V domains shown)
VH: QVQLVESGGGVVQPGRSLRLSCAASGFTFSNYAMYWVRQAPGKGLEWVAVISYDGSNKYYADSVKGRFTISRDNSKNTLYLQMNSLRTEDTAVYYCASGSDYGDYLLVYWGQGTLVTVSS
VL: QSALTQPASVSGSPGQSITISCTGTSSDVGGYNYVSWYQQHPGKAPKLMIYDVSKRPSGVSNRFSGSKSGNTASLTISGLQSEDEADYYCNSLTSISTWVFGGGTKLTVL

Molecular target: SARS CoV-1 RBD (SARS-CoV-1)
Experiment: ELISA

Molecule | EC50 [nM]
REGN10933 (Casirivimab) (antibody) | 14
B1 | > 100
